# Assay results as given in paper PMC4631386, “Identification and Characterization of the Interaction Site between cFLIPL and Calmodulin” (PLoS ONE, 2015).
# B1: DED1 R4 peptide (peptide)
# peptide: VRRFDLLKRILK
# notes: cFLIP DED1 region 4, V62-K73, twelve amino acids; also called region 4; source: synthetic peptide (Tufts University Core Facility)
# Target: T1, His-tagged human calmodulin (recombinant) (human, UniProt P0DP24 1-149)
# T1 construct: human calmodulin, CALM2 cDNA (OriGene SC125707) in a modified pET16b with a TEV site between the N-terminal polyhistidine tag and the protein; also called free calmodulin; recombinant calmodulin; not shown: polyhistidine, N-terminal, kept
# Assay: ELISA; competition: calmodulin immobilised, GST-DED1 held at its KD concentration, R4 peptide titrated; anti-GST AlexaFluor 488 detection
# Settings: both partners purified
binder,measurement,value
B1,IC50,63 µM
